From patent US20060223158

Experiments:
[1] = tested on: Cdk5 purified from insect Sf9 cultures
[2] = tested on: p35-His6 purified from insect Sf9 cultures

CK1α (New England Biolabs), sequence (P48729 2-337): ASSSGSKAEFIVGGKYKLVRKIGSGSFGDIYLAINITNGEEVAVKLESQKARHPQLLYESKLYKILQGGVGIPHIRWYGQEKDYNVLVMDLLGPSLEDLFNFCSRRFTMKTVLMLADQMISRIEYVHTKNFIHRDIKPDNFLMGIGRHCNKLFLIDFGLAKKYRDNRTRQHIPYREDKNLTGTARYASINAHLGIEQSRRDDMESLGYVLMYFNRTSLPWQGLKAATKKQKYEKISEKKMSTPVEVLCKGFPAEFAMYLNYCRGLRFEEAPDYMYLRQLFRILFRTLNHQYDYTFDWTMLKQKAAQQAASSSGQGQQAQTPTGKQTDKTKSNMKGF

CK1α (New England Biolabs)
32P incorporation, in vitro phosphorylation, SDS-PAGE and autoradiography [1]: phosphorylated Cdk5 catalytic subunit to a much lesser extent | 32P incorporation, in vitro phosphorylation, SDS-PAGE and autoradiography [2]: CKI was able to efficiently phosphorylate p25 | stoichiometry of phosphorylation in vitro [2]: phosphorylation of p25 to approximately 2 mol/mol
